Assay results reported in publication PMC9623368, “P38 kinases mediate NLRP1 inflammasome activation after ribotoxic stress response and virus infection” (The Journal of Experimental Medicine, 2022).

B1: VHH_(NLRP1 PYD 1) (VHH)
VHH: QVQLVESGGGLVEAGGSLRLSCAASGRTFSNYALSWFRQAPGKERELVAAISWSGDYTYYADSVKGRFTISRDNAKNTVYLQMHSLKPEDTAVYYCNADSRSGTYSPSSGSWGQGTQVTVSS
notes: Alpaca nanobody raised against His-NLRP1^PYD, selected by phage display on GST-NLRP1^PYD; cloned into a pHEN6-based periplasmic vector with C-terminal HA-His6; also called VHHPYD 1; NLRP1^PYD nanobody 1; source: E. coli WK6, periplasmic extract, purified (Ni-NTA, desalting); not shown: HA, C-terminal, kept
B2: VHH_(NLRP1 PYD) 2 (VHH)
VHH: QVQLVESGGGLVQTGGSLRLSCVASGGTFSRFTMAWFRQAPGKEREFVAGVSWSGGLTHYSDSVKGRFTISRDNAKNTLYLQMSSLKPEDTAVYYCYGQSTVAGATIDYWGQGTQVTVSS
notes: Alpaca nanobody raised against His-NLRP1^PYD, selected by phage display on GST-NLRP1^PYD; cloned into a pHEN6-based periplasmic vector with C-terminal HA-His6; also called VHHPYD 2; NLRP1^PYD nanobody 2; source: E. coli WK6, periplasmic extract, purified (Ni-NTA, desalting); not shown: HA, C-terminal, kept

Molecular target: T1, GST-NLRP1^PYD (Homo sapiens, UniProt Q9C000)
T1 construct: NLRP1, human, pyrin domain (PYD), aa 1-92; Vector: customised destination vector based on pGEX-2T; also called GST-NRLP1^PYD; source: E. coli BL21, purified (glutathione resin, gel filtration)
T1 sequence (Q9C000 1-92): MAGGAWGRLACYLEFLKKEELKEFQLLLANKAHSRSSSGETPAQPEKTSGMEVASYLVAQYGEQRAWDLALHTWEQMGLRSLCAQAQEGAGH
Test: ELISA; GST-NLRP1^PYD or GST in PBS immobilised on ELISA plates at 1 ug/ml overnight; serial tenfold dilutions of HA-tagged nanobodies in 10% FBS/PBS; detected with HRP-coupled anti-HA and TMB, absorption at 450 nm
Settings: both partners purified

Binder	binding result
B1	binds
B2	binds
